Broadly, the IC50 is the concentration at which inhibition is half-maximal.

One assay deals with MC-1RB. Put plainly: cAMP functional receptor assay in COS-7 cells transfected with MC-1RB expression plasmids. Conditions: for approximate rank order of potency in eliciting the cAMP response: COS-7 cells transiently expressing MC-R1B; for rise in intracellular cAMP formation: maximum agonist concentration, compared to background response in sham-transfected COS-7 cells. The assay is classed as cell-based, human. The method, then: cAMP Functional Receptor Assay—Receptor-mediated stimulation of cyclic AMP (cAMP) formation was assayed in COS-7 cells transfected with MC-1RB expression plasmids. Cells expressing MC-1RB were dissociated from tissue culture flasks by rinsing with Ca and Mg free phosphate buffered saline (Life Technologies, Gaithersburg, Md.) and detached following 5 min. incubation with enzyme-free dissociation buffer (Specialty Media, Lavellette, N.J.). Cells were collected by centrifugation and resuspended in Earle's Balanced Salt Solution (EBSS) (Life Technologies, Gaithersburg, Md.) with additions of 10 mM HEPES pH 7.5, 5 mM MgCl2, 1 mM glutamine and 1 mg/ml bovine serum albumin. Cells are counted and diluted to 2 to 4×10^6/ml. The phosphodiesterace inhibitor 3-isobutyl-1-methylxanthine was added at a concentration of 0.6 mM. Test peptides were diluted in EBSS with above additions and 10% DMSO; 0.1 vol of compounds added to 0.9 vol of cells. After room temperature incubation for 40 min., cells are lysed by incubation at 100° C. for 5 min. to release accumulated cAMP. cAMP is measured in an aliquot of the cell lysate with the Amersham (Arlington Heights, Ill.) cAMP detection assay (RPA556).
Previous studies (Mountjoy, et al., 1992, Science 257:1248-1251 [see also U.S. Pat. No. 5,532,347]; Chhajlani and Wikberg, 1992, FEBS Letters 309:417-420) has documented that activation of the MC-1RA isoform by melanocortin agonists results in an elevation of intracellular cAMP production through the coupling of G-proteins to activation of membrane-bound adenylate cyclase.
On the technique in general: Cyclic AMP is a second messenger, typically raised through Gs and lowered through Gi signalling.

The target in assay [1] is human MC-R1B receptor (splice variant of the human melanocortin-1 receptor, 382 amino acids) (human). Briefly: cell-based or functional assay.
For assay [2] the target is unchanged. Put plainly: displacement of 200 pM [125I]-NDP-αMSH from crude membranes of COS-7 cells expressing human MC-R1B.
Assay [3] shares this target. Put plainly: radioligand binding, membranes of COS-7 cells expressing MC-R1B.

For MT-II, in the assay with MC-1RB, the “approximate rank order of potency in eliciting the cAMP response” value (shortened to “approximate rank order of potency”) is “MT-II>NDP-MSH>SHU-9119>αMSH>βMSH>γMSH” and the “rise in intracellular cAMP formation” value is about 3 fold.
As to MT-II (peptide), the intracellular cAMP formation in COS-7 cells transiently expressing MC-R1B in assay [1] turned out to be 3 fold. Besides, the half-inhibitory concentration (IC50) in assay [2] is 0.2 nM.
Consider NDP-αMSH, for which, in the assay with MC-1RB, the “approximate rank order of potency” value is “MT-II>NDP-MSH>SHU-9119>αMSH>βMSH>γMSH” and the “rise in intracellular cAMP formation” value is about 3 fold.
As to NDP-αMSH (unlabelled) (peptide), the intracellular cAMP formation in COS-7 cells transiently expressing MC-R1B in assay [1] stood at 3 fold. The IC50 in assay [2] is 0.7 nM.
As to SHU-9119, the “rise in intracellular cAMP formation” value in the assay with MC-1RB is listed as about 3 fold.
The molecule SHU-9119 (peptide) returned an intracellular cAMP formation in COS-7 cells transiently expressing MC-R1B in assay [1] of 3 fold. In addition, the IC50 in assay [2] stood at 0.7 nM.
Molecule [125I]-NDP-αMSH (peptide) had a specific binding (percent of total binding) (% of total binding) in assay [3] of over 90.
Take αMSH: in the assay with MC-1RB, the “approximate rank order of potency” value is recorded as “MT-II>NDP-MSH>SHU-9119>αMSH>βMSH>γMSH” and the “rise in intracellular cAMP formation” value is recorded as about 3 fold.
“βMSH (from UniProt P01189 213-234) (peptide)” displayed an intracellular cAMP formation in COS-7 cells transiently expressing MC-R1B in assay [1] of 3 fold.
As to “βMSH: β-melanocyte stimulating hormone, melanocortin peptide derived from the POMC gene”, in the assay on MC-1RB, the “approximate rank order of potency” value is given as “MT-II>NDP-MSH>SHU-9119>αMSH>βMSH>γMSH” and the “rise in intracellular cAMP formation” value was about 3 fold.
Turning to “γMSH (from UniProt P01189 77-88) (peptide)”, the intracellular cAMP formation in COS-7 cells transiently expressing MC-R1B in assay [1] was found to be 3 fold.
SYSMEHFRWGKPVGKKRRPVKVYPNGAEDESAEAFPLEF (peptide, UniProt P01189 138-176, looked up) [ACTH] registered an IC50 in assay [2] of 5 nM. This counts as single-digit nanomolar.
For the molecule SYSMEHFRWGKPV (peptide, UniProt P01189 138-150, looked up) [αMSH], the intracellular cAMP formation in COS-7 cells transiently expressing MC-R1B in assay [1] stood at 3 fold. The molecule also showed an IC50 in assay [2] of 5 nM.

Source of the values: patent US6693184B1, “DNA molecules encoding splice variants of the human melanocortin 1 receptor protein” (Merck & Co., Inc., priority 1998, dated 2004).
